Experimental data: US20060205032

T1: recombinant human STAT1 (Biosource), P42224
T1 chain: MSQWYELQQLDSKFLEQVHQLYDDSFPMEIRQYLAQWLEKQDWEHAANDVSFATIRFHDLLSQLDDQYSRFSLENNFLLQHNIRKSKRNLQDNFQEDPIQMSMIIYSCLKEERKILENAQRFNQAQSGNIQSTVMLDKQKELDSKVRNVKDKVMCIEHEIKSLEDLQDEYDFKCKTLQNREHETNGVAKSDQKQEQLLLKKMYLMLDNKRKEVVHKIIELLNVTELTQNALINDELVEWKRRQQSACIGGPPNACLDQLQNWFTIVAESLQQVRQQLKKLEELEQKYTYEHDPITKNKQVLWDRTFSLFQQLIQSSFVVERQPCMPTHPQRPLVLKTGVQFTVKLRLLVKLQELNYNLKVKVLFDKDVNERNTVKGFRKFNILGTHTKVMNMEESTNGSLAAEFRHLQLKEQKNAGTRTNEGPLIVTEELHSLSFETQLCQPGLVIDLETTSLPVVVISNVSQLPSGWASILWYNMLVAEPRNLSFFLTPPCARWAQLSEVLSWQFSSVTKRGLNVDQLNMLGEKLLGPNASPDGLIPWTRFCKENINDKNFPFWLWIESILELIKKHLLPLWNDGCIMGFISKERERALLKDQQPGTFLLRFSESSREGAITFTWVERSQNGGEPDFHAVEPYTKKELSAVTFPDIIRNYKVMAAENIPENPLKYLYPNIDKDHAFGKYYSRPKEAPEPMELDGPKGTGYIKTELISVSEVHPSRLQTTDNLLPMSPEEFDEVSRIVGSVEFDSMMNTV


Tests used:
[1] = biological target: T1, recombinant human STAT1 (Biosource), …
[2] = biological target: UbcH5a (human recombinant E2), P51668
Chain of UbcH5a (human recombinant E2), P51668 (P51668 whole entry): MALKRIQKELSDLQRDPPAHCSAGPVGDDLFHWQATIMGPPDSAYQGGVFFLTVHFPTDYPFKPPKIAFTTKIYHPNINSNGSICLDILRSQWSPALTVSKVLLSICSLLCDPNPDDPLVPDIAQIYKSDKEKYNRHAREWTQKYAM

Row | Protein | ubiquitination of STAT1 (ubiquitin transfer assay, Avidin-HRP blot) [1] | ubiquitination of WT-Δ52-hSLIM with different human E2 enzymes (Avidin-HRP blot) [2]
1 | GST-SLIM (bacterially expressed wild-type GST-hSLIM) (protein) MALTVDVAGPAPWGFRITGGRDFHTPIMVTKVAERGKAKDADLRPGDIIVAINGESAEGMLHAEAQSKIRQSPSPLRLQLDRSQATSPGQTNGDSSLEVLATRFQGSVRTYTESQSSLRSSYSSPTSLSPRAGSPFSPPPSSSSLTGEAAISRSFQSLACSPGLPAADRLSYSGRPGSRQAGLGRAGDSAVLVLPPSPGPRSSRPSMDSEGGSLLLDEDSEVFKMLQENREGRAAPRQSSSFRLLQEALEAEERGGTPAFLPSSLSPQSSLPASRALATPPKLHTCEKCSTSIANQAVRIQEGRYRHPGCYTCADCGLNLKMRGHFWVGDELYCEKHARQRYSAPATLSSRA | WT-SLIM mediates the ubiquitination of STAT1 and demonstrates strong E3 ligase activity towards both STAT1 and hSLIM | 
2 | GST-Δ52-hSLIM (protein) MALTVDVAGPAPWGFRITGGRDFHTPIMVTKVAERGKAKDADLRPGDIIVAINGESAEGMLHAEAQSKIRQSPSPLRLQLDRSQATSPGQTNGDSSLEVLATRFQGSVRTYTESQSSLRSSYSSPTSLSPRAGSPFSPPPSSSSLTGEAAISRSMDSEGGSLLLDEDSEVFKMLQENREGRAAPRQSSSFRLLQEALEAEERGGTPAFLPSSLSPQSSLPASRALATPPKLHTCEKCSTSIANQAVRIQEGRYRHPGCYTCADCGLNLKMRGHFWVGDELYCEKHARQRYSAPATLSSRA | WT-Δ52-hSLIM demonstrates E3 ligase activity by transferring ubiquitin to a biologically relevant downstream substrate, STAT1 | WT-A52-hSLIM demonstrates preferential ubiquitination in the presence of UbcH5a
